Data as given in US6680170B2, “Polynucleotides encoding STE20-related protein kinases and methods of use” (Sugen, Inc., priority 1998, dated 2004).
Where no end group is shown, it is not given here.

What was measured:
PAK5 = biological target: T1, PAK5 (Homo sapiens, UniProt O96013); assay: In vitro kinase assay, activation loop peptides as PAK5 substrates; assay type: biochemical; details: for substrate: peptide substrates at 2.5 μM
T1 construct: made in house; host or cells: 293 cells (transient transfection, immunopurified on protein A sepharose) or bacteria (GST fusion)
T1 sequence (O96013 whole entry, the tested form may be a part): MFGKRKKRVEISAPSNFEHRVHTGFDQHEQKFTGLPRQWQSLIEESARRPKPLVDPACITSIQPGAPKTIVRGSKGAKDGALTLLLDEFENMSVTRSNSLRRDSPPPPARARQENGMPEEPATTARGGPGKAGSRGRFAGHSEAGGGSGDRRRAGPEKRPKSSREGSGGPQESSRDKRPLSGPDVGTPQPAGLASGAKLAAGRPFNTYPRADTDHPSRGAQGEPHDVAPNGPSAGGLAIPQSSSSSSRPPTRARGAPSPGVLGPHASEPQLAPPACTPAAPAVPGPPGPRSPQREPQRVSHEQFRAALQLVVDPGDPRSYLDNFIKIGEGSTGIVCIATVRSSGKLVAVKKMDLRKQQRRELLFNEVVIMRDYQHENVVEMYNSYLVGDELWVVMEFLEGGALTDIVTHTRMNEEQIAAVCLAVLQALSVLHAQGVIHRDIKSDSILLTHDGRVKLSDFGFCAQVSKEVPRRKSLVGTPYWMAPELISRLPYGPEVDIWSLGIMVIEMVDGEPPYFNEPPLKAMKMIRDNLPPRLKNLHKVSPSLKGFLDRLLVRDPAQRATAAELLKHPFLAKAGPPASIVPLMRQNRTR
Experimental: (§1) Three days after transfection with the STE20-related kinase expression contructs, a 10 cm plate of 293 cells was washed with PBS and solubilized on ice with 2 mL PBSTDS containing phosphatase inhibitors (10 mM NaHPO4, pH 7.25, 150 mM NaCl, 1% Triton X-100, 0.5% deoxycholate, 0.1% SDS, 0.2% sodium azide, 1 mM NaF, 1 mM EGTA, 4 mM sodium orthovanadate, 1% aprotinin, 5 μg/mL leupeptin). Cell debris was removed by centrifugation (12000× g, 15 min, 4° C.) and the lysate was precleared by two successive incubations with 50 μL of a 1:1 slurry of protein A sepharose for 1 hour each. One-half mL of the cleared supernatant was reacted with 10 μL of protein A purified kinase-specific antisera (generated from the GST fusion protein or antipeptide antisera) plus 50 μL of a 1:1 slurry of protein A-sepharose for 2 hr at 4° C. The beads were then washed 2 times in PBSTDS, and 2 times in HNTG (20 mM HEPES, pH 7.5/150 mM NaCl, 0,1% Triton X-100, 10% glycerol).
(§2) The immunopurified kinases on sepharose beads were resuspended in 20 μL HNTG plus 30 mM MgCl2, 10 mM MnCl2, and 20 μCi […] (3000 Ci/mmol). The kinase reactions were run for 30 min at room temperature, and stopped by addition of HNTG supplemented with 50 mM EDTA. The samples were washed 6 times in HNTG, boiled 5 min in SDS sample buffer and analyzed by 6% SDS-PAGE followed by autoradiography. Phosphoamino acid analysis was performed by standard 2D methods on ^32P-labeled bands excised from the SDS-PAGE gel.
Similar assays were performed on bacterially expressed GST-fusion constructs of the kinases.
20 mM Hepes pH 7.2, 130 mM KCl, 10 mM MgCl2, 1 mM NaF, 20 mM B-glycerolphosphate, 0.5 mM DTT, 50 μM ATP, 0.5 μCi ^32PyATP.
Substrates: MBP at 0.28 mg/mL and peptide substrates derived from PAK5 activation loop at 2.5 μM.
To aid in the development of in vitro kinase assays for screening small molecule libraries to identify specific inhibitors, the search for specific peptide substrates for PAK5 was undertaken.
The rationale used to design such peptides is based on the hypothesis that upon binding activated small G protein, PAK5 undergoes a conformational change that results in derepression of its kinase activity followed by autophosphorylation on the activation loop resulting in a fully active kinase. The site of autophosphorylation for related family members has been identified by biochemical and/or genetic means (e.g. Wu, C, et al. J.Biol.Chem 270:15984-15992 and Szczepanowska, et al. Proc.Natl.Acad.Sci 94, 8503-8508, 1997). Specific peptide substrates for PAKS were designed from the sequence of the activation loop of this kinase.

PAK4 = biological target: T2, PAK4 (Homo sapiens, UniProt Q9NQU5); assay: In vitro kinase assay, activation loop peptide as PAK4 substrate; assay type: biochemical
T2 construct: made in house; host or cells: 293 cells (transient transfection, immunopurified) or bacteria (GST fusion)
T2 sequence (Q9NQU5 whole entry, the tested form may be a part): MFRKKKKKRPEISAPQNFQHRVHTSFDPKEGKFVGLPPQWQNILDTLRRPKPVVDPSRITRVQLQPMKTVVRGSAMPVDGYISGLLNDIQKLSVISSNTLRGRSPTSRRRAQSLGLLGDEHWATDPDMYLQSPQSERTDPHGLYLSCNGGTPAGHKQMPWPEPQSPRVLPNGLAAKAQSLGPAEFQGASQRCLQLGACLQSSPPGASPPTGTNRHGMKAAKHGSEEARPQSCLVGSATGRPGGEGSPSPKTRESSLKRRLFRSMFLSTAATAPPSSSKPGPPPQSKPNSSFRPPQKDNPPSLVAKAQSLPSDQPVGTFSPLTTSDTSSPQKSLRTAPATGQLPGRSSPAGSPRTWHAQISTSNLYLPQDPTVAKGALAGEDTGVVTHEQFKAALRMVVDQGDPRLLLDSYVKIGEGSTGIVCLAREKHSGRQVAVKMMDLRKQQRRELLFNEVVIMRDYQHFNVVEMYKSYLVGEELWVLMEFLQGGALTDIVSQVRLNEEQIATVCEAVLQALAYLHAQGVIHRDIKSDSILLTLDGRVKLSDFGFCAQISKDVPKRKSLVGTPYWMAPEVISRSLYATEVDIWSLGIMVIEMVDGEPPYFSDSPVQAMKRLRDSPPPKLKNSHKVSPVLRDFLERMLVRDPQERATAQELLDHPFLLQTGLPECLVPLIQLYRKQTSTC
Experimental: as §1
as §2, with “Phosphoamino acid analysis was performed by standard 2D methods on ^32P-labeled bands excised from the SDS-PAGE gel.” left out

| Substance | substrate (PAK5) | Notes: substrate quality relative to MBP or other peptides (PAK5) | also measured |
| --- | --- | --- | --- |
| RRNTFIGTPYWMAPE [Peptide 7] | poor |  |  |
| KRNTFVGTPFWMAPE [Peptide 5] | poor |  |  |
| (C) RRKSLVGTPYWMAPE [3] (CRRKSLVGTPYWMAPE; also: phosphorylated residue) [Peptide 3, phosphorylated residue marking not visible] | no |  |  |
| PANSFVGTPYWMAPE [Peptide 6] | poor |  |  |
| (C) RRKSLVGTPYWMAPE (CRRKSLVGTPYWMAPE; N-terminal cysteine) [Peptide 10] |  |  | Notes: Km for PAK4 compared with PAK5 (PAK4): Same Km as phosph. by PAK5; substrate (PAK4): yes |
| RNKVRKTFVGTPCWMAPE [Peptide 9] | poor |  |  |
| (C) RRKSLVGTPYWMAPE [1] (CRRKSLVGTPYWMAPE; N-terminal cysteine) [Peptide 1] | yes | Equally well as MBB |  |
| RRNTFIGTPYWMAPE (also: phosphorylated residue) [Peptide 8, phosphorylated residue marking not visible] |  | Better than 7 |  |
| (C) RRKSLVGTPYWMAPE [2] (CRRKSLVGTPYWMAPE; also: phosphorylated residue) [Peptide 2, phosphorylated residue marking not visible] | yes |  | Km (PAK5; Notes column): 1 to 10 µM |
| KRKSFIGTPYWMAPE [Peptide 4] | yes | Similiar to peptide 1 |  |
